The values below come from US20100323957A1, “NOVEL ASSAY FOR INHIBITORS OF EGFR” (THE REGENTS OF THE UNIVERSITY OF CALIFORNIA THE OFFICE OF …, priority 2007, published 2010).

Test [1] concerns the target T1, EGFR kinase domain attached to lipid vesicles (activated EGFR kinase) (Homo sapiens, UniProt P00533).
T1 construct: DNA encoding residues 672-998 of human EGFR was cloned into pFAST BAC HT; made in house; host or cells: Sf9 insect cells (baculovirus)
Kind of test: Vesicle-based kinase assay: EGFR kinase domain attached to lipid vesicles. The note with it: for inhibition of activity of kinase domain attached to lipid vesicles: result in words. The test is classed as biochemical. From the text:
(§1) The wild-type and mutant forms of the EGFR kinase domain were expressed and purified using methods known in the art and described in Zhang et al., (2006). The 60-residue MIG6 peptide was expressed in bacteria as a glutathione S-transferase (GST)-fusion protein, purified and treated with the TEV protease to remove the GST-moiety. The wild-type and Y358A mutant MIG6(segments 1-2) peptides were fused to a Trp DLE leader peptide and expressed as inclusion bodies and purified as described. All other MIG6 peptides were produced using solid phase synthesis. […] The binding affinities between the kinase domain and fluorescein-labeled MIG6 peptides were measured by monitoring the change of fluorescence anisotropy during the titration and fitting the data to a single-site binding model. Kinase assays in solution and on vesicle were performed using methods known in the art and described herein. Cell-based inhibition assays were performed using Cos-7 cells co-transfected with constructs containing full-length EGFR and MIG6.

Test [2] deals with T2, wild-type EGFR kinase domain (Homo sapiens, UniProt P00533).
T2 construct: DNA encoding residues 672-998 of human EGFR was cloned into pFAST BAC HT; 6-His tag, linker and TEV cleavage site (N, cleaved yes); made in house; host or cells: Sf9 insect cells (baculovirus)
Description: Fluorescence anisotropy binding titration, wild-type kinase domain. The note with it: result in words.
Excerpt: as §1
Fluorescein-labelled 30-residue wild-type, M346L, M346A, F352A and Y358A MIG6 peptides were diluted to final concentrations of 5, 8, 3.1, 3.5 and 2.7 μM in a buffer containing 10 mM Tris, 50 mM NaCl and 2 mM DTT, pH7.5. These peptides in the cuvette were then titrated with the wild-type or mutant forms of the EGFR kinase domain at 20 uC. For the competition assays, the labeled 30-mer wild-type peptide ([…]) and kinase domain ([…]) were mixed and titrated with unlabelled competitor peptides. The fluorescence anisotropy at each titration step was monitored. The I682Q and K799E mutant kinases used in the binding assays contain the N-terminal 63H is tag and linker fragment before the kinase domain, whereas this N-terminal fragment in the wild-type and V924R mutant kinases was removed by Tobacco Etch Virus protease treatment.
A general note: Polarisation of emitted light reports the rotation of a fluorescent probe.

Test [3] has as its target T3, EGFR kinase domain V924R mutant (Homo sapiens, UniProt P00533, V948R).
T3 construct: DNA encoding residues 672-998 of human EGFR was cloned into pFAST BAC HT; 6-His tag, linker and TEV cleavage site (N, cleaved yes); made in house; host or cells: Sf9 insect cells (baculovirus)
Description: Fluorescence anisotropy binding titration, V924R mutant kinase domain. Particulars: result in words.
Excerpt: as §1
(§2) Fluorescein-labelled 30-residue wild-type, M346L, M346A, F352A and Y358A MIG6 peptides were diluted to final concentrations of 5, 8, 3.1, 3.5 and 2.7 μM in a buffer containing 10 mM Tris, 50 mM NaCl and 2 mM DTT, pH7.5. […] The fluorescence anisotropy at each titration step was monitored. […]

Test [4] has as its system lung cancer. Particulars: patients with lung cancer; cited from earlier work.
In test [5] the target is T4, EGFR kinase domain I682Q mutant (Homo sapiens, UniProt P00533, I706Q).
T4 construct: DNA encoding residues 672-998 of human EGFR was cloned into pFAST BAC HT; made in house; host or cells: Sf9 insect cells (baculovirus)
Description: Kinase assay in solution, I682Q mutant kinase domain (basal activity). In kind it is biochemical. The note with it: result in words. The method, then:
The EGFR kinase domain has very low activity in solution, but is activated on increasing its local concentration by tethering it to lipid vesicles, which promotes the formation of the asymmetric dimer. […] An EGFR kinase domain bearing an I682Q mutation is not stimulated by concentration at the membrane because it is unable to form the asymmetric dimer. […] Thus, MIG6(segment 1) is only able to inhibit the kinase domain in the context of asymmetric dimer formation.
(§3) Kinase assays were performed using methods known in the art and described herein. The substrate peptide was kept at 1 mM in all the experiments. The reported rates are the initial velocities normalized by the kinase concentrations. The wild-type kinase concentrations in the vesicle-based and solution-based assays were […] respectively.
(§4) A continuous enzyme-coupled kinase assay was performed to measure the kinase activity of the proteins as described in Barker et al., ((1995) Biochemistry, Vol. 34(54): 14843-51), with modifications, as described herein. The ATP concentration was kept to 0.5 mM.
(§5) The buffer used contained 10 mM MgCl2, 20 mM Tris, and pH 7.5. […] The substrate peptide was derived from the region spanning Y1173 in EGFR ([…]). All proteins used in this assay contained the N-terminal (His)6 tag unless otherwise noted.

The target of test [6] is T5, EGFR kinase domain L834R mutant (Homo sapiens, UniProt P00533, L858R).
T5 construct: DNA encoding residues 672-998 of human EGFR was cloned into pFAST BAC HT; made in house; host or cells: Sf9 insect cells (baculovirus)
Kind of test: Kinase assay in solution, L834R mutant kinase domain. In kind it is biochemical. Particulars: result in words. The method, then:
To test the role of segment 2, we produced a longer peptide (residues 336-412, MIG6(segments 1-2)), and analyzed its effect on a variant of the EGFR kinase domain that contains a mutation (L834R) that renders it constitutively active in the absence of concentration on vesicles. MIG6(segments 1-2) inhibits this mutant kinase domain with an IC50 value of ˜200 nM (FIG. 25a). MIG6(segments 1-2) bearing a mutation within segment 1 (Y358A) inhibited L834R much less efficiently (IC50˜5 μM).
as §3, §4, §5

Test [7] deals with T4, EGFR kinase domain I682Q mutant. Description: Fluorescence anisotropy binding titration, I682Q mutant kinase domain. Particulars: result in words.
Excerpt: as §1, §2

Test [8] has as its system biliary tract cancer. The note with it: in vitro; cited from earlier work.
Test [9] concerns cancer cells in colon cancer. Particulars: in vitro; cited from earlier work.
The subject of test [10] is gastric cancer cells. The note with it: cited from earlier work.

Regarding “F352A: 30-residue MIG6 segment 1 peptide with F352A mutation (SPKSLPSYLNGVMPPTQSAAPDPKYVSSKA; UniProt Q9UJM3 334-363, looked up, variant F352A)”, in test [1], the “inhibition of activity of kinase domain attached to lipid vesicles” value (“inhibition of activity … to lipid vesicles” for short) is given as “do not inhibit kinase activity significantly”. The “binding to the wild-type EGFR kinase domain” value in test [2] is “abrogates binding”.

The term IC50 denotes the concentration needed to halve the response being measured. In the case of “KSLPSYLNGVMPPTQSFAPDPKYVSS (chains of the parent or of the whole protein) [40-mer peptide]”, in test [1] (vesicle-based kinase assay, read-out: IC50 for inhibiting the activated EGFR kinase (kinase domain attached to lipid vesicles)), the IC50 was approximately 10 µM.

Turning to “M346A: 30-residue MIG6 segment 1 peptide with M346A mutation (SPKSLPSYLNGVAPPTQSFAPDPKYVSSKA; UniProt Q9UJM3 334-363, looked up, variant M346A)”, in test [1], the “inhibition of activity … to lipid vesicles” value is on record as “do not inhibit kinase activity significantly”. The “binding to the wild-type EGFR kinase domain” value in [2] is reported as “abrogates binding”.

Regarding “Y358A: 30-residue MIG6 segment 1 peptide with Y358A mutation (SPKSLPSYLNGVMPPTQSFAPDPKAVSSKA; UniProt Q9UJM3 334-363, looked up, variant Y358A)”, in [1], the “inhibition of activity … to lipid vesicles” value is recorded as “do not inhibit kinase activity significantly”. Further, in test [2], the “binding to the wild-type EGFR kinase domain” value is “abrogates binding”.

Regarding “30-residue fluorescein-labelled MIG6 peptide: fluorescein-labelled MIG6 peptide, residues 334-363, spanning the entire binding epitope of segment 1”, the “binding to EGFR kinase domain bearing V924R mutation” value in test [3] is “abolishes peptide binding”.

With `C#Cc1cccc(Nc2ncnc3cc(OCCOC)c(OCCOC)cc23)c1` [Erlotinib], in test [4], the survival times entry was “increases survival times by several months”.

Regarding “MIG6(segment 1): 25-residue epitope of MIG6 (residues 337-361) binding the EGFR kinase domain; tested as the 30-residue peptide”, in [5], the “inhibition of basal activity of I682Q mutant kinase domain in solution” value was “not inhibited”. Moreover, the “binding to EGFR kinase domain bearing V924R mutation” value in [3] is on record as “does not bind”. Besides, the “inhibition of L834R mutant kinase domain” value in test [6] is “did not inhibit”. Besides, the “binding to the wild-type EGFR kinase domain” value in test [2] is on record as “micromolar affinity”. In addition, the “binding affinity for I682Q mutant kinase domain compared with wild-type” value in [7] is recorded as “same binding affinity”.

As for `COc1cc2ncnc(Nc3ccc(F)c(Cl)c3)c2cc1OCCCN1CCOCC1` [gefitinib], the “growth of cancer cells” value in test [8] and in test [9] was “halt the growth of cancer cells” in each case. Also, the “apoptosis of gastric cancer cells” value in [10] is reported as “increase apoptosis”.
